Data from patent US20250000946A1 (WUXI BIOLOGICS IRELAND, published 2025).
Read-outs that look alike come from different tables or passages of the source. Blank lines part the entries; values can stand above or below the binder they belong to.

Tests used:
[1] = biological target: T1, Human IL-2Rβ/γ (intermediate affinity IL-2 receptor) (human, UniProt P14784 27-551; P31785 23-369); test: FACS, HH cells
T1 construct: whole, on cells; also called IL-2Rβ/γc; IL-2Rβ (CD122) and γ (CD132)
T1 sequence (looked up) 1: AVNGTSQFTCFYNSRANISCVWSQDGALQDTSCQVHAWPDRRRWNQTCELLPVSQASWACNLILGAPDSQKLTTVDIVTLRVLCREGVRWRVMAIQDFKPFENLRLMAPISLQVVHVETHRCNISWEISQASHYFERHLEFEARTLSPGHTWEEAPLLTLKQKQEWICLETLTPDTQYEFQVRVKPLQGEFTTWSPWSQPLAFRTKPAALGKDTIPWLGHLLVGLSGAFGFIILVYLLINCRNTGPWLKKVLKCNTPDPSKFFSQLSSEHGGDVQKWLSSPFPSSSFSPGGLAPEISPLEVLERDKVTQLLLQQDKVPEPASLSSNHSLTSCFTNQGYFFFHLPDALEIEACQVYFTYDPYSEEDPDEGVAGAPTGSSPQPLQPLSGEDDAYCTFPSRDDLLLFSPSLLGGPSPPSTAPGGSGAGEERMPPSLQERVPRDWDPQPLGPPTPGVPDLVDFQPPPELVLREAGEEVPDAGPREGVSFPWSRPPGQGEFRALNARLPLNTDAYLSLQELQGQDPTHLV
T1 sequence (looked up) 2: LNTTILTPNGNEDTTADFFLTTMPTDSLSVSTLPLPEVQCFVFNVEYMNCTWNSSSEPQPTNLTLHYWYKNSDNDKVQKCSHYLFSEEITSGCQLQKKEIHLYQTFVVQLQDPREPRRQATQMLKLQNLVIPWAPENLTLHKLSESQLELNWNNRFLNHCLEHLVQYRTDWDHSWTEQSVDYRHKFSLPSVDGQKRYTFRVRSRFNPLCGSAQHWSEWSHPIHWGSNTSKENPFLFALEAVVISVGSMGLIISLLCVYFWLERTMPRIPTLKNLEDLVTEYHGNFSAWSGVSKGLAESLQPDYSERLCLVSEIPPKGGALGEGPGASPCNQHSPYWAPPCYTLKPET
Method in brief: (§1)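 Readout is median fluorescence intensity by FACS after PE-anti-human Fc detection of IL-2/Fc fusion proteins bound to cells. Binding was done for 30 min at 4° C. to avoid internalization, with secondary staining for a further 30 min at 4° C.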

[2] = biological target: T1, Human IL-2Rβ/γ (intermediate affinity …); test: FACS, HH cells; remark: listed apart in the source
Description: (§2) Human cutaneous T cell lymphoma HH cells, malignant non-Hodgkin's lymphoma NK92 cells and cutaneous T cell lymphoma MJ20 cells were used for binding assay. They both constitutively express IL-2Rβ (CD122) and […] (CD132), and NK92 and MJ20 also expresses IL-2Rα (CD25). HH, NK92 and MJ20 cells were cultured following ATCC guidance, then transferred to a 96-plate for binding analysis. Cells were incubated with IL-2/Fc fusion proteins at the indicated concentrations for 30 min at 4° C. to avoid internalization. Binding was detected by 2nd antibody of PE-anti-human Fc at 4° C. for another 30 min. The median fluorescence intensity (MFI) on HH and NK92 cells was measured using FACS.

[3] = biological target: T2, Human IL-2Rα/β/γ complex (high affinity IL-2 receptor) (human, UniProt P01589 22-272; P14784 27-551; P31785 23-369); test: FACS, NK92 cells
T2 construct: whole, on cells
T2 sequence (looked up) 1: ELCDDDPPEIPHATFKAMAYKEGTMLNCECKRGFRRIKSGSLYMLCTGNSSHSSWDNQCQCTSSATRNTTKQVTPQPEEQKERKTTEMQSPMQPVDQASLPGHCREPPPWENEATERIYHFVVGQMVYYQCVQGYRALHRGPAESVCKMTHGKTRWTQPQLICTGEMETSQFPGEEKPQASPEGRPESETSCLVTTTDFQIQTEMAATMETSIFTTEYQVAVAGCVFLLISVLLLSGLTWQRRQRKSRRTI
T2 sequence (looked up) 2: T1 sequence (looked up) 1
T2 sequence (looked up) 3: T1 sequence (looked up) 2
Method in brief: as §1

[4] = biological target: T1, Human IL-2Rβ/γ (intermediate affinity …); test: cell-based or functional assay
[5] = biological target: T2, Human IL-2Rα/β/γ complex (high affinity …); test: cell-based or functional assay
[6] = biological target: T1, Human IL-2Rβ/γ (intermediate affinity …); test: cell-based or functional assay; remark: listed apart in the source
[7] = biological target: T2, Human IL-2Rα/β/γ complex (high affinity …); test: cell-based or functional assay; remark: listed apart in the source
[8] = biological target: T1, Human IL-2Rβ/γ (intermediate affinity …); test: FACS, HH cells; EC50 fold vs T2U0.E44-1
Method in brief: as §1

[9] = biological target: T1, Human IL-2Rβ/γ (intermediate affinity …); test: FACS, HH cells; EC50 fold vs T2U0.E44-1; remark: listed apart in the source
Description: as §2

[10] = biological target: T2, Human IL-2Rα/β/γ complex (high affinity …); test: FACS, NK92 cells; EC50 fold vs T2U0.E44-1
Method in brief: as §1

[11] = biological target: T3, W3XX115-T2U0.E44-6.uIgG4V322 (human, UniProt P60568 21-149); test: SPR Biacore 8K; variant captured via anti-human Fc, IL-2Rα ECD-His injected; steady state
T3 construct: IL-2 del STLT; E44 format, IgG4 FALA; IL-2 part tied by the design 'Del STLT'; not shown: IgG4 hinge-Fc with FALA (uIgG4V322), no linker
Description: IL-2 variants binding affinity to IL-2 receptor were detected by SPR using Biacore 8K. For IL-2Rα binding assay, each variant was captured on anti-human Fc immobilized CM5 sensor chip (cytiva). W3XX115-hPro1.ECD.His at different concentrations were injected over the sensor chip at a flow rate of 30 uL/min for an association phase of 60 s, followed by 90 s dissociation. The chip was then regenerated by 10 mM Glycine-HCl pH1.5 after each binding cycle. For IL-2Rγ binding assay, IL-2 variants were mixed with W369-hPro2.ECD.His as 1:1 before assay, were detected by SPR using Biacore 8K. W3XX115-hPro1.ECD.His was captured on anti-His immobilized CM5 sensor chip (cytiva). The mixture were injected over the sensor chip as described above. The sensorgrams of blank surface and buffer channel were subtracted from the test sensorgrams. The experimental data was fitted by steady state affinity model. Molecular weight of W3XX115-hPro1.ECD.His or W369-hPro1.ECD.His was used to calculate the molar concentration of analyte.
For T3U0.E44-1 and T2U0.E44-33, no binding to IL-2Rα was detected.

[12] = biological target: T3, W3XX115-T2U0.E44-6.uIgG4V322; test: SPR Biacore 8K; set-up for IL-2Rβ not described
[13] = biological target: T3, W3XX115-T2U0.E44-6.uIgG4V322; test: SPR (Biacore 8K): variant pre-mixed 1:1 with human IL-2Rβ ECD (W369-hPro2.ECD.His), injected over immobilised human IL-2Rγc [panel 2 of the upper row]

Kd [11]: 0.0982 µM
B3: W3XX115-hPro1.ECD.His, IL2Rα ECD (receptor)
chain: ELCDDDPPEIPHATFKAMAYKEGTMLNCECKRGFRRIKSGSLYMLCTGNSSHSSWDNQCQCTSSATRNTTKQVTPQPEEQKERKTTEMQSPMQPVDQASLPGHCREPPPWENEATERIYHFVVGQMVYYQCVQGYRALHRGPAESVCKMTHGKTRWTQPQLICTGEMETSQFPGEEKPQASPEGRPESETSCHHHHHH
notes: Entry includes the C-terminal 6xHis tag; also called CD25

binding result [13]: binds
B5: W369-hPro1.ECD.His, IL-2Rγ ECD (receptor)
chain: LNTTILTPNGNEDTTADFFLTTMPTDSLSVSTLPLPEVQCFVFNVEYMNCTWNSSSEPQPTNLTLHYWYKNSDNDKVQKCSHYLFSEEITSGCQLQKKEIHLYQTFVVQLQDPREPRRQATQMLKLQNLVIPWAPENLTLHKLSESQLELNWNNRFLNHCLEHLVQYRTDWDHSWTEQSVDYRHKFSLPSVDGQKRYTFRVRSRFNPLCGSAQHWSEWSHPIHWGSNTSKENLEGGGGSGGGGHHHHHH
notes: Entry includes linker and C-terminal 6xHis tag; also called IL-2Rγc; CD132

The next lines start with the binder.

B1: W3XX115-T3U0.E44-1.uIgG4V1 (Fc fusion)
chain: APTSSSTKKTQLQLEHLLLDLQMILNGINNYKNPKLTRMLTAKFAMPKKATELKHLQCLEEELKPLEEVLNGAQSKNFHLRPRDLISNINVIVLELKGSETTFMCEYADETATIVEFLNRWITFCQSIISTLTESKYGPPCPPCPAPEFLGGPSVFLFPPKPKDTLMISRTPEVTCVVVDVSQEDPEVQFNWYVDGVEVHNAKTKPREEQFNSTYRVVSVLTVLHQDWLNGKEYKCKVSNKGLPSSIEKTISKAKGQPREPQVYTLPPCQEEMTKNQVSLWCLVKGFYPSDIAVEWESNGQPENNYKTTPPVLDSDGSFFLYSRLTVDKSRWQEGNVFSCSVMHEALHNHYTQKSLSLSLG
heavy: EIQLQQSGPELVKPGASVKVSCKASGYSFTDYNMYWVKQSHGESLEWIGYIDPYNGGTRYNQKFKGKATLTVDKSSSTAFMHLNSLTSEDSAVYYCARNGHWDGAWFAYWGQGTLVTVSAASTKGPSVFPLAPCSRSTSESTAALGCLVKDYFPEPVTVSWNSGALTSGVHTFPAVLQSSGLYSLSSVVTVPSSSLGTKTYTCNVDHKPSNTKVDKRVESKYGPPCPPCPAPEFLGGPSVFLFPPKPKDTLMISRTPEVTCVVVDVSQEDPEVQFNWYVDGVEVHNAKTKPREEQFNSTYRVVSVLTVLHQDWLNGKEYKCKVSNKGLPSSIEKTISKAKGQPREPQVCTLPPSQEEMTKNQVSLSCAVKGFYPSDIAVEWESNGQPENNYKTTPPVLDSDGSFFLVSRLTVDKSRWQEGNVFSCSVMHEALHNHYTQKSLSLSLG
light: DIQMNQSPSSLSASLGDTITITCHASQNINVWLSWYQQKPGNIPKLLIYKASNLHTGVPSRFSGSRSGTGFTLTISSLQPEDIATYYCHQGQSYPFTFGSGTKLEIKRTVAAPSVFIFPPSDEQLKSGTASVVCLLNNFYPREAKVQWKVDNALQSGNSQESVTEQDSKDSTYSLSSTLTLSKADYEKHKVYACEVTHQGLSSPVTKSFNRGEC
notes: E44 format, IgG4
EC50 [1]: 0.0729 µM
EC50 [2]: 0.0245 µM
EC50 [3]: 0.145 µM
Potency in human CD8+ T EC50 [4]: 0.00753 µM
Potency reduction (CD8+ T) [4]: 0.74 fold
Potency in human Treg EC50 [5]: 0.00248 µM
Potency reduction (Treg) [5]: 652 fold
Human CD8+ T Potency EC50 (STAT5 phosphorylation) [6]: 0.00714 µM
Human CD8+ T Potency reduction [6]: 0.69 fold
Human Treg Potency EC50 (STAT5 phosphorylation) [7]: 0.00352 µM
Human Treg Potency reduction [7]: 296 fold
Affinity reduction [8]: 1 fold
Affinity reduction [9]: 1 fold
Affinity reduction [10]: 20.7 fold

B2: W3XX115-T2U0.E44-20.uIgG4V1 (Fc fusion)
chain: APTSSSTKKTQLQLEHLLLDLQMILNGINNYKNPKLTWMLTFKFYMPKKATELKHLQCLEEELKPLEEVLNLAQSKNFHLRPRDLISNINVIVLELKGSETTFMCEYADETATIVEFLNRWITFCQSIIESKYGPPCPPCPAPEFLGGPSVFLFPPKPKDTLMISRTPEVTCVVVDVSQEDPEVQFNWYVDGVEVHNAKTKPREEQFNSTYRVVSVLTVLHQDWLNGKEYKCKVSNKGLPSSIEKTISKAKGQPREPQVYTLPPCQEEMTKNQVSLWCLVKGFYPSDIAVEWESNGQPENNYKTTPPVLDSDGSFFLYSRLTVDKSRWQEGNVFSCSVMHEALHNHYTQKSLSLSLG
heavy: B1 heavy
light: B1 light
notes: IL-2 del STLT and R38W; E44 format, IgG4
EC50 [2]: 0.336 µM
EC50 [3]: 0.232 µM
Human CD8+ T Potency EC50 (STAT5 phosphorylation) [6]: 0.323 µM
Human CD8+ T Potency reduction [6]: 31.4 fold
Human Treg Potency EC50 (STAT5 phosphorylation) [7]: 0.00206 µM
Human Treg Potency reduction [7]: 173 fold
Affinity reduction [9]: 13.5 fold
Affinity reduction [10]: 33.1 fold

B4: W369-hPro2.ECD.His, IL2Rβ ECD (receptor)
chain: AVNGTSQFTCFYNSRANISCVWSQDGALQDTSCQVHAWPDRRRWNQTCELLPVSQASWACNLILGAPDSQKLTTVDIVTLRVLCREGVRWRVMAIQDFKPFENLRLMAPISLQVVHVETHRCNISWEISQASHYFERHLEFEARTLSPGHTWEEAPLLTLKQKQEWICLETLTPDTQYEFQVRVKPLQGEFTTWSPWSQPLAFRTKPAALGKDLEGGGGSGGGGHHHHHH
notes: Entry includes linker and C-terminal 6xHis tag; also called CD122
Kd [12]: 1.01 µM
